This note sets out measurements from paper PMC9201815, “Rapid Quantification of C. difficile Glutamate Dehydrogenase and Toxin B (TcdB) with a NanoBiT Split-Luciferase Assay” (Analytical Chemistry, 2022).

The term Kd denotes the concentration at which binding is half-saturated. Low readings indicate a tighter complex, high ones a looser complex. What is called koff is the rate constant with which the complex falls apart. A low value points to slow dissociation. One may read the kon as a measure of how fast the partners come together.

Test [1] addresses inactivated toxoid B (TxB) (C. difficile, inactivated toxoid (how it was inactivated is not stated)). In words: SPR. The note with it: both partners purified.
The target in the next test is Affimer 4. The test can be described thus: SPR; biotinylated Affimer/nanobody immobilised on a streptavidin chip, titrated with serial dilutions of analyte; fit to 1:1 Langmuir model. On the technique in general: In SPR one partner is held on a chip, and binding of the other changes the refractive index at the surface.
Affimer 4, sequence (main, as listed by the source): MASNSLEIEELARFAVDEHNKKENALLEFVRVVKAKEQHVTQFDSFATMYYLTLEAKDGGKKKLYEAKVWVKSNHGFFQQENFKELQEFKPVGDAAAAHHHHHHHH

B1: Nanobody E3 (VHH)
chain: QVQLVESGGGLVQTGGSLRLSCASSGSIAGFETVTWSRQAPGKSLQWVASMTKTNNEIYSDSVKGRFIISRDNAKNTVYLQMNSLKPEDTGVYFCKGPELRGQGIQVTVSS
notes: also called TcdB nanobody E3
In test [1], B1 came in with a dissociation constant Kd of 2.5 nM, a koff of 0.00025 s⁻¹ and a kon of 100000 M⁻¹ s⁻¹.

B2: C. difficile glutamate dehydrogenase (GDH) (enzyme)
chain: MSGKDVNVFEMAQSQVKNACDKLGMEPAVYELLKEPMRVIEVSIPVKMDDGSIKTFKGFRSQHNDAVGPTKGGIRFHQNVSRDEVKALSIWMTFKCSVTGIPYGGGKGGIIVDPSTLSQGELERLSRGYIDGIYKLIGEKVDVPAPDVNTNGQIMSWMVDEYNKLTGQSSIGVITGKPVEFGGSLGRTAATGFGVAVTAREAAAKLGIDMKKAKIAVQGIGNVGSYTVLNCEKLGGTVVAMAEWCKSEGSYAIYNENGLDGQAMLDYMKEHGNLLNFPGAKRISLEEFWASDVDIVIPAALENSITKEVAESIKAKLVCEAANGPTTPEADEVFAERGIVLTPDILTNAGGVTVSYFEWVQNLYGYYWSEEEVEQKEEIAMVKAFESIWKIKEEYNVTMREAAYMHSIKKVAEAMKLRGWY
In the test with Affimer 4, B2 registered a Kd of 19 nM, a koff of 0.00081 s⁻¹ and a kon of 44000 M⁻¹ s⁻¹.

B3: Nanobody 7F (VHH)
VHH: QVQLVESGGGLVEAGGSLRLSCVVTGSSFSTSTMAWYRQPPGKQREWVASFTSGGAIKYTDSVKGRFTMSRDNAKKMTYLQMENLKPEDTAVYYCALHNAVSGSSWGRGTQVTVSS
notes: also called TcdB nanobody 7F
In test [1], B3 had a Kd of 33 nM, a dissociation rate constant (koff) of 0.0009 s⁻¹ and a kon of 28000 M⁻¹ s⁻¹.
